Measurements taken from the DeepSol protein solubility set.

Experiment: soluble on expression in E. coli; label from the status in PepcDB or PDB records

Row | Sequence | soluble on expression in E. coli
1 | AIASPQDTCCPPDSWPALKVDYKPKGKLEDIGKGLKAYVVGNGPRAVIALNDVFGIESGHSKEICDAIADKGFTVVFPDVFRGKPLQVSDMSKLFDELPGWAKQFDYEPALRKDVVEVILPYLHDKLGFKSNDQIALAGFCWGAFMLFHLAGDTKLPGGPFACGVSFHPSVQIEGVFQRDPLQLIDRATCPQLLLPSAGEPDYMKEEGDAIKKLRAKPFGASCGVKTFPSMQHGWVNRGDRNDPQVVKEAQEALQLAVDFMMRHTKPKA | soluble
2 | AIASVAFVPDWLRGKAEVNQETIQRLLEENDQLIRCIVEYQNKGRGNECVQYQHVLHRNLIYLATIADASPTSTSKAME | soluble
3 | AIATSCHIAEEHIQKVAIFGGTHGNELTGVFLVKHWLENGAEIQRTGLEVKPFITNPRAVKKCTRYIDCDLNRIFDLENLGKKMSEDLPYEVRRAQEINHLFGPKDSEDSYDIIFDLHNTTSNMGCTLILEDSRNNFLIQMFHYIKTSLAPLPCYVYLIEHPSLKYATTRSIAKYPVGIEVGPQPQGVLRADILDQMRKMIKHALDFIHHFNEGKEFPPCAIEVYKIIEKVDYPRDENGEIAAIIHPNLQDQDWKPLHPGDPMFLTLDGKTIPLGGDCTVYPVFVNEAAYYEKKEAFAKTTKLTLNAKSIRCCLH | soluble
4 | AIFELMNEAYAPLYGFSALSQGQINQYIKMYLPIVDLRMVTLVTDAEDKLVAVGISMPSLSEALQKAKGRLLPMGWYHLLKVLFLHKYPPMLDLLLVAVKPEYQNKGVNALLFSDLIPVYQQLGFKYA | not soluble
5 | AIREFNTKEKVFNEFTAVFDVLNHLPAFAKLHLANSMSVRYANTLGISQRNAEVFANRGTSGIDGVISTAYGYALKTSQLVTIITGDLAFFYDRNAFWNNYKPSNLRVVLLNNHGGGIFRMIDGPSALPELDELFETKQTLSARYLATEHGLEYTLCKNLNGLNQALESFFQPSMFGKILEIETDSVKN | not soluble
6 | AKHLFTSESVSEGHPDKIADQISDAVLDAILEQDPKARVACETYVKTGMVLVGGEITTSAWVDIEEITRNTVREIGYVHSDMGFDANSCAVLSAIGKQSPDINQGVDRADPLEQGAGDQGLMFGYATNETDVLMPAPITYAHRLVQRQAEVRKNGTLPWLRPDAKSQVTFQYDDGKIVGIDAVVLSTQHSEEIDQKSLQEAVMEEIIKPILPAEWLTSATKFFINPTGRFVIGGPMGDCGLTGRKIIVDTYGGMARHGGGAFSGKDPSKVDRSAAYAARYVAKNIVAAGLADRCEIQVSYAIGVAEPTSIMVETFGTEKVPSEQLTLLVREFFDLRPYGLIQMLDLLHPIYKETAAYGHFGREHFPWEKTDKAQLLRDAAGLK | soluble
7 | AKIGLFFGSNTGKTRKVAKSIKKRFDDETMSDALNVNRVSAEDFAQYQFLILGTPTLGEGELPGLSSDAENESWEEFLPKIEGLDFSGKTVALFGLGDQVGYPENYLDALGELYSFFKDRGAKIVGSWSTDGYEFESSEAVVDGKFVGLALDLDNQSGKTDERVAAWLAQIAPEFGLSL | soluble
8 | AKQDYYEILGVSKTAEEREIRKAYKRLAMKYHPDRNQGDKEAEAKFKEIKEAYEVLTDSQKRAAYDQYGHAAFEQGGMGGGGFGGGADFSDIFGDVFGDIFGGGRGR | soluble
9 | ALHEATRDLLGADSPSTVAAEVGAAIESILEFRINVIRVHRDGQLQPVHVNDKAEELLAERPTYDVGEGFPGEAFEEQQASVYTDIRDHDGGTALEPVVSWLYVPISEYGIISVGQTDPDAFDETDLNLVQIIASNAEVALQRLQKERELQRENDRLEQFASTVS | not soluble
10 | ALLITKKCINCDMCEPECPNEAISMGDHIYEINSDKCTECVGHYETPTCQKVCPIPNTIVKDPAHVETEEQLWDKFVLMHHADKI | soluble
11 | AMTGSDGTKILTITRPDTHGTKTSLTARLYSDTTKKATLDTIFTVVTSPDSDKAKMWGHMPETVTAADGAVFKRPLLLKELSSTSGRTAIAEDNEDWAQFTQAQAISTSSNGCGSEYVPSQAGLESLYEANRGNAMKTVQGWPVASSYLSSTTGSSSLEQRDFKAVNLSSGTSSIIPSATKELLTCQ | not soluble
12 | ANMPPGSVEQVAAKVVPSVVMLETDLGRQSEEGSGIILSAEGLILTNNHVIAAAAKPPLGSPPPKTTVTFSDGRTAPFTVVGADPTSDIAVVRVQGVSGLTPISLGSSSDLRVGQPVLAIGSPLGLEGTVTTGIVSALNRPVSTTGEAGNQNTVLDAIQTDAAINPGNSGGALVNMNAQLVGVNSAIATLGADSADAQSGSIGLGFAIPVDQAKRIADELISTGKASHASLGVQVTNDKDTLGAKIVEVVAGGAAANAGVPKGVVVTKVDDRPINSADALVAAVRSKAPGATVALTFQDPSGGSRTVQVTLGKAEQLEHHHHHH | soluble
13 | APNVDLHCHSTVSDGSMPPAAVARRAHANGVDVWALTDHDEIGGVAEAAQAAAALGMRFVAGVEISVTWAGLTVHIVGLRVDPANEALVQGLRDTRAGRAARAVQIGERLAGLGMPGAYEGALPFAGNPELISRTHFARFLVEAGYCPDVQTVFNKYLGDDCPGHVPMQWASLAEAVGWIRGAGGCAVIAHPGRYKYSPMQFDALYDEFLQLGGTGIEVVTGSHTSEEARRYAEVARRHGFLASRGSDFHSPTESRVDLGRLPPLPPDLKPVWHDW | not soluble
14 | APPKAVLKLEPPWINVLQEDSVTLTCQGARSPESDSIQWFHNGNLIPTHTQPSYRFKANNNDSGEYTCQTGQTSLSDPVHLTVLSEWLVLQTPHLEFQEGETIMLRCHSWKDKPLVKVTFFQNGKSQKFSRLDPTFSIPQANHSHSGDYHCTGNIGYTLFSSKPVTITVQVHHHHHH | soluble
15 | APRSVAMVVPQGSDIRQLSDLRGKRIALNKGSNVHWLLLQILEDAGLGLNDVRVVYTPPKYPLTASDYLAVDAWMMWDPLLSDAEHTGELRVVASGEGRVNNHQFYLSRRDYLAQHGDIMRRLLTELTHTGQFIDSHRGEAARLLSAELGI | not soluble
16 | APTMTEFVGTAGGDTVGLVIANVDSLLHKHLGLDNTCRSIGIISARVGAPAQMMAADEAVKGTNTEVATIELPRDTKGGAGHGIFIVLKAADVSDARRAVEIALKQTDKYLGNVYLCDAGHLEVQYTARASLIFEKAFGAPSGQAFGIMHAAPAGVGMIVADTALKTADVKLITYGSPTNGVLSYTNEILITISGDSGAVLQSLTAARKAGLSILRSMGQDPVSMSKPTF | soluble
17 | AQDMVSPPPPIADEPLTVNTGIYLIECYSLDDKAETFKVNAFLSLSWKDRRLAFDPVRSGVRVKTYEPEAIWIPEIRFVNVENARDADVVDISVSPDGTVQYLERFSARVLSPLDGRRTESDSQTLHIYLIVRSVDTRNIVLAVDLEKVGKNDDVFLTGWDIESFTAVVKPANFALEDRLESKLDYQLRISRQGGHHHHHH | soluble
18 | AQEPVKGPVSTKPGSCPIILIRCAMLNPPNRCLKDTDCPGIKKCCEGSCGMACFVPQ | soluble
19 | AQPGAEVLAIDGITVKDTRGIETVRDLSLSVKAGEIVGIAGVDGNGQSELIEAVTGLRKTDSGTITLNGKQIQNLTPRKITESGIGHIPQDRHKHGLVLDFPIGENILLQSYYKKPYSALGVLHKGEMYKKARSLITEYDVRTPDEYTHARALSGGNQQKAIIGREIDRNPDLLIAAQPTRGLDVGAIEFVHKKLIEQRDAGKAVLLLSFELEEIMNLSDRIAVIFEGRIIASVNPQETTEQELGLLMAGSTQKEAGKANG | not soluble
20 | ARICDVFSRFDETPLASASVAQVHAACLKTGEEVVVKVVRPGLKPIIGQDLAWLFILARMAERVSADARLLHPVQVVMDYEKTIYDELDLLREAANSSQLRRNFEGSDLLYVPQVYWDWCR | not soluble
21 | ARKLFVLDTNVLLHDPSSLFRFEEHDIFLPMMTLEELDHQKKGMSEVARNARQVSRSLDSLVQDADNLDDGLALNALGNKDATGRLMFQTTAIHSTLPSDLPMGKADNQILGVVRALQERHPQREVVLVSKDINMRLKARALGMAAEDYYNDHVLEDTDLMYS | not soluble
22 | ARKRFAGLEPVEMRMEVKAGDHGNTIINDVYSNDVYSLTLALDFQRRRTAETCLKKVLILSDILQSGMPPEELYRHVAGQLQVYALDFFVGIGEEIASHRTCFAGMSAVFFKDVATFLTSGEIERFSNSCILLKGARKYRFEQITERLVQQVH | not soluble
23 | ARSEKRVPMTRLRKRVAERLLEAKNSTAMLTTFNEVNMKPIMDLRKQYGEAFEKRHGIRLGFMSFYVKAVVEALKRYPEVNASIDGDDVVYHNYFDVSMAVSTPRGLVTPVLRDVDTLGMADIEKKIKELAVKGRDGKLTVEDLTGGNFTITNGGVFGSLMSTPIINPPQSAILGMHAIKDRPMAVNGQVEILPMMYLALSYDHRLIDGRESVGFLVTIKELLEDPTRLLLDV | soluble
24 | ARSSRFTRQADETLTDSEGSGLQFINFDEGSASNPIIARDQEGSGQMYDEEGSGNTLLFDSETPIQVMNVTGTEAEPTDSKVFNQSINITDSDVETLVIKVHLPQKTTSQLLDDLKDDTAQQTNPINTLDTAVSLTSMLNELLGKIQDATTQ | not soluble
25 | ARVDQTPRSVTKETGESLTINCVLRDASYALGSTCWYRKKSGEGNEESISKGGRYVETVNSGSKSFSLRINDLTVEDGGTYRCGLGVAGGYCDYALCSSRYAECGDGTAVTVN | soluble
26 | ASEKVGMNLVTAQGVGQSIGTVVIDETEGGLKFTPHLKALPPGEHGFHIHANGSCQPAIKDGQAVAAEAAGGHLDPQNTGKHEGPEGQGHLGDLPVLVVNNDGIATEPVTAPRLKSLDEVKDKALMIHVGGDNMSDQPKPLGGGGTRYACGVIK | soluble
27 | ASNVHRVQQVIHAAIATNRKLAVAGRSMVKVVSIAERLGYLEAPDDLFIDIEEVSKYDDERVAIITTGSQGEPMSALSRMAKGAHRQITITENDTVIIAATPIPGNERSVSTIVDLLHRIGADVIFGHGKVHASGHGSAEELKLMLNLMRPKFFVPIHGEFRMQHAHKELAKSVGIREEAIFLVDKGEVVEFRNGQGRKAGKVPSGNVLIDGLGVGDVGNIVLRDRRLLSKDGILVVVVTLNKQSGTILSGPNIISRGFVYVRESEKLIEEANELVTETLKKCVTENVNEWSSLKSNVREVLSRFLFEKTKRRPMILPIIME | soluble
28 | ASQFFFNQRTHLVSDVIDGAIIASPWNNLARLESDPAIRIVVRRDLNKNNVAVISGGGSGHEPAHVGFIGKGMLTAAVCGDVFASPSVDAVLTAIQAVTGEAGCLLIVKNYTGDRLNFGLAAEKARRLGYNVEMLIVGDDISLPDNKHPRGIAGTILVHKIAGYFAERGYNLATVLREAQYAASNTFSLGVALSSCHLPQETDAAPRHHPGHAELGMGIHGEPGASVIDTQNSAQVVNLMVDKLLAALPETGRLAVMINNLGGVSVAEMAIITRELASSPLHSRIDWLIGPASLVTALDMKGFSLTAIVLEESIEKALLTEVETSNWPTPVPPREITCVVSSHASARVEFQPSANALVAGIVELVTATLSDLETHLNALDAKVGDGDTGSTFAAAAREIASLLHRQQLPLNNLATLFALIGERLTVVMGGSSGVLMSIFFTAAGQKLEQGANVVEALNTGLAQMKFYGGADEGDRTMIDALQPALTSLLAQPKNLQAAFDAAQAGAERTCLSSKANAGRASYLSSESLLGNMDPGAQALAMVFKALAESELG | soluble
29 | ASTQGISEDLYNRLVEMATISQAAYADLCNIPSTIIKGEKIYNAQTDINGWILRDDTSKEIITVFRGTGSDTNLQLDTNYTLTPFDTLPQCNDCEVHGGYYIGWISVQDQVESLVKQQASQYPDYALTVTGHSLGASMAALTAAQLSATYDNVRLYTFGEPRSGNQAFASYMNDAFQVSSPETTQYFRVTHSNDGIPNLPPAEQGYAHGGVEYWSVDPYSAQNTFVCTGDEVQCCEAQGGQGVNDAHTTYFGMTSGACTW | soluble
